Values of other authors as cited in publication PMC4160827.

Target: HIF-1α CODD (Homo sapiens) (UniProt Q16665)

In the case of PHD2 (from UniProt Q9GZT9), the Kd is listed as 14 µM.
